This data set in a line: yeast display, Sf9 membrane polyspecificity reagent, FACS + sequencing; frameworks hold sequencing errors. The gist of the method: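 Nanobodies from a synthetic yeast display library (Saccharomyces cerevisiae BJ5465), induced 36–48 hours with galactose, were stained 1 hour at 4 °C with 10% biotinylated, detergent-solubilized Sf9 membrane reagent, enriched on streptavidin microbeads, then FACS-sorted. Anti-HA (expression) and streptavidin (reagent binding) fluorescence set low and high (top ~1%) gates. Polyreactivity labels come from the gate of origin. Genes were colony-PCR amplified, MiSeq 2 × 250 sequenced and filtered by CDR length.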
With “QVQLVESGGGLVQAGGSLRLSCAASGSIFWFYAMGWYRQAPGKERELVAAISYSGGITYYADSVKGRFTISRDNAKNTVYLQMNSLKPEDTAVYYCNADGPSTPWVDYGYWGQGTQVTVSS”, the “polyreactivity (PSR sort gate)” value is on record as “low polyreactivity”. For “QVQLVESGGGLVQAGGSLRLSCAASGSIFWGNAMGWYRPAPGKERELVASISDSGGSTYADSVKGRFTISRDNAKNTVYLQMNSLKPEDTAVYYCAADDWYSAGIRNWYYGGYDYWGQGTQVTVSS” the value was “low polyreactivity”. Consider “QVQLVESGGGLVQAGGSLRLSCAASGSIFWGNAMGWYRQAPGKEREMVAAITWSGGSTYYADSVKGRFTISRDNAKNTVYLQMNSLKPEDTAVYYCYAVYIGSRRRYEYDYWGQGTQVTVSS”, for which the “polyreactivity (PSR sort gate)” value is reported as “high polyreactivity”. Consider “QVQLVESGGGLVQAGGSLRLSCAASGSIFWGYAMGWYRPAPGKERELVATIRNRGGSTYYADSVKGRFTISRDNAKNTVYLQMNSLKPEDTAVYYCAAVSYRQYYGWGNYWGQGTQVTVSS”, for which the “polyreactivity (PSR sort gate)” value is “low polyreactivity”. With “QVQLVESGGGLVQAGGSLRLSCAASGSIFWGYAMGWYRQAPGKERELVAAIRNGGSTNYADSVKGRFTISRDNAKNTVYLQMNSLKPEDTAVYYCAKYYYYLRSARKYDYWGQGTQVTVSS”, the “polyreactivity (PSR sort gate)” value is “high polyreactivity”. For “QVQLVESGGGLVQAGGSLRLSCAASGSIFWGYAMGWYRQAPGKERELVASSTNYADSVKGRFTISRDNAKNTVYLQMNSLKPEDTAVYYCAREQGVNRNHDYWGQGTQVTVSS” the value was “low polyreactivity”; for “QVQLVESGGGLVQAGGSLRLSCAASGSIFWGYAMGWYRQAPGKERELVAVITWSVGRTYYADSVKGRFTISRDNAKNTVYLQMNSLKPEDTAVYYCNAKSWYGGSYYRYDYWGQGTQVTVSS”, “low polyreactivity”. On to “QVQLVESGGGLVQAGGSLRLSCAASGSIFWIYAMGCYRQAPGKERELVATITRRGGSTYYADSVKGRFTISRDNAKNTVYLQMNSLKPEDTAVYYCATEPGYTYLTSYKYDYWGQGTQVTVSS”, for which the “polyreactivity (PSR sort gate)” value is listed as “low polyreactivity”. The result for “QVQLVESGGGLVQAGGSLRLSCAASGSIFWKNVMGSYRQAPGKERELVAGISQNGGSTTYADSVKGRFTISRDNAKNTVYLQMNSLKPEDTAVYYCAAKRYGPFKYGYWGQGTQVTVSS” reads “high polyreactivity”; that for “QVQLVESGGGLVQAGGSLRLSCAASGSIFWKYAMGWYRQAPGKERELVAAISRSSSTTYYADSVKGRFTISRDNAKNTVYLQMNSLKPEDTAVYYCAAYYRSRVSDDYWGQGTQVTVSS”, “high polyreactivity”.

For “QVQLVESGGGLVQAGGSLRLSCAASGSIFWLYAMGWYRQAPGKERELVAAITRRGGSTYYADSVKGRFTISRDNAKNTVYLQMNSLKPEDTAVYYCNRLYYSGSGASLDYWGQGTQVTVSS”, the “polyreactivity (PSR sort gate)” value is on record as “high polyreactivity”. The result for “QVQLVESGGGLVQAGGSLRLSCAASGSIFWLYAMGWYRQAPGKERELVAAITWSGGRTYYADSVKGRFTISRDNAKNTVYLQMNSLKPEDTAVYYCARRQWPWYSNPARGGKYDYWGQGTQVTVSS” reads “low polyreactivity”. For “QVQLVESGGGLVQAGGSLRLSCAASGSIFWNNAMGWYIQAPGKEREWVAGISSAGSTNYADSVKGRFTISRDNAKNTVYLQMNSLKPEDTAVYYCAASYFRDYVWLRSNVRYYYWGQGTQVTVSS”, the “polyreactivity (PSR sort gate)” value is on record as “low polyreactivity”. As to “QVQLVESGGGLVQAGGSLRLSCAASGSIFWQTPMGWYRQAPGKERELVAAITRSGGSTYYADSVKGRFTISRDNAKITVYLQMNSLKPEDTLVYYCKKYGYKGGVGDDYWGQGTQVTVSS”, the “polyreactivity (PSR sort gate)” value is reported as “high polyreactivity”.

As for “QVQLVESGGGLVQAGGSLRLSCAASGSIFWRYAMGWYRQAPGKERELVAVISRSGGRTYYADSVKGRFTISRDNAKNTVYLQMNSLKPEDTAVNYCAADYYGVYSKRYGFDYWGQGTQVTVSS”, the “polyreactivity (PSR sort gate)” value was “high polyreactivity”. For “QVQLVESGGGLVQAGGSLRLSCAASGSIFWRYSMGWYRQAPGKERELVAAINYSTTRTYYADSVKGRFTISRDNAKNTVYLQMNSLKPEDTAVYYCAADSRVDEGEYWGQGTQVTVSS”, the “polyreactivity (PSR sort gate)” value is listed as “high polyreactivity”. For the sequence “QVQLVESGGGLVQAGGSLRLSCAASGSIFWSNAMGWYIQAPGKERELVAAITGGGTTNYADSVKGRFTISRDNAKNTVYLQMNSLKPEDTAVVYTVSSAQYDYWGQGTQVTVSS”, the “polyreactivity (PSR sort gate)” value is recorded as “low polyreactivity”.

Take “QVQLVESGGGLVQAGGSLRLSCAASGSIFWSYAMGWYRHAPGKESELVAAITYSGTSTYYADSVKGRFTISRDTAKNTVYLQMNSLKPEDTAVYYCAASPFSRSRNDYWGQGTQVTLSS”: the “polyreactivity (PSR sort gate)” value is “low polyreactivity”. The result for “QVQLVESGGGLVQAGGSLRLSCAASGSIFWSYAMGWYRQAPGKERELVAAIRRGGSTNYADSVKGRFTISRDNAKNTVYLQMNSLKPEDTAVYYCAKSRGVRREPPKYATTYNYWGQGTQVTVSS” reads “low polyreactivity”; that for “QVQLVESGGGLVQAGGSLRLSCAASGSIFWTYAMGWSRQAPGKERELVATITYSDGNTYYADSVKGRFTISRDNAKNTVYFQMNSLKPEDTAVYYCNADGIYATISGYRYDYWGQGTQVTVSS”, “low polyreactivity”.

Take “QVQLVESGGGLVQAGGSLRLSCAASGSIFWVYAMGWYRQAPGKEREFVAAITYSGGSTYYADSVKGRFTISRDNAKNTVYLQMNSLKPEDTAVYYCAADYDYDYGSRYYYWGQGTQVTVSS”: the “polyreactivity (PSR sort gate)” value is given as “low polyreactivity”.

On to “QVQLVESGGGLVQAGGSLRLSCAASGSIFWVYAMGWYRQAPGKERELVAAISNRGGSTYYSDSVKGRFTISRDNAKITVYLQMNSLKPEDTAVYYCAAVVAHHYYWGQGTQVTVSS”, for which the “polyreactivity (PSR sort gate)” value is given as “high polyreactivity”. The result for “QVQLVESGGGLVQAGGSLRLSCAASGSIFWWYTMGRYRQAPGKERELVAAITWNADGTYYADSVKGRFTISRDNAKNTVYLQMNSLKPEDTAVYYCAADQYYLDWGGGYDYWGQGPQVTVSS” reads “low polyreactivity”; that for “QVQLVESGGGLVQAGGSLRLSCAASGSIFWYNAMGWYIHAPWNERELVAAITSSSGRTRYADSEKGRFTISRDNAKNTVYLQMNSLKQEDTAVYYCAVAEGYSPAYLRDYWGQGTQVTVSS”, “high polyreactivity”; that for “QVQLVESGGGLVQAGGSLRLSCAASGSIFWYNAMGWYRQAPGKERELVAAISRSGSRTYYADSVKGRFTISRDNAKNTVYVQMTSLKPEATAVYYCARVRPRGLYFVLHYDYWGQGTQVTVSS”, “high polyreactivity”. For “QVQLVESGGGLVQAGGSLRLSCAASGSIFWYNAMGWYRQAPGKERELVAAITSGGTTSYADSVKGRFTISRDNAKNTVYLQMNSLKPEDTAVYYCAKDWNDDQHSWDTPFDYWGQGTQVTVSS” the value was “low polyreactivity”. For the sequence “QVQLVESGGGLVQAGGSLRLSCAASGSIFWYNAMVWYRQAPGKERELVAAISYSGDRTYYADSVKGRFTISRDNAKYTVYLQMNSLKPEDTAFYYCAKAGTGFYNSWWEDYWGQGTQVTVSS”, the “polyreactivity (PSR sort gate)” value is “low polyreactivity”. In the case of “QVQLVESGGGLVQAGGSLRLSCAASGSIFWYNSMGWYRQAPGKERELVAAISYRGGRTYYADSVKGRFTISRDNAKNTVYLQMNSLKPEDTAVYYCNAPRYLGGGQDALGDYWGQGTQVTVSS”, the “polyreactivity (PSR sort gate)” value is reported as “high polyreactivity”.

Consider “QVQLVESGGGLVQAGGSLRLSCAASGSIFWYYAMGWYRQAPGKERELVAAISGSGTRTYYADSVKGRFTISRDNAKNTVYLQMNSLKPEDTAVYYCAATAVRQSGRYLSSSGYDYWGQGTQVTVSS”, for which the “polyreactivity (PSR sort gate)” value is on record as “high polyreactivity”. The result for “QVQLVESGGGLVQAGGSLRLSCAASGSIFWYYAMGWYRQAPGKERELVAAITGSGVRTYYADSVKGRFTISRDNAKNTVYLQMNSLKPEDTAVYYCNAVSSHSFYFYGDHNYWGQGTQVTVSS” reads “low polyreactivity”; that for “QVQLVESGGGLVQAGGSLRLSCAASGSIFWYYAMGWYRQAPGKERELVARITFSGSRTHYADSVKGRFTISRDNAKNTVYLQMNSLKPEDTSVYYCATDTVYGNDYWGQGTQVTVSS”, “low polyreactivity”; that for “QVQLVESGGGLVQAGGSLRLSCAASGSIFWYYAMGWYRQAPGKERELVATITSGGTNYADSVKGRFTISRDNAKNTVYLQMNSLKPEDTAVYYCNADVSWSRIFYLGYDSNDYWGQGTQVTVSS”, “low polyreactivity”.

“QVQLVESGGGLVQAGGSLRLSCAASGSIFWYYGMGWYRQAPGKERELVAAISSGGSTNYADSVKVRFAISRDNAKNTVYLQMNSLKPEDTAVYYCAVRFTFPRYPASYSRYYYWGQGTQVTVSS”: the “polyreactivity (PSR sort gate)” value is “high polyreactivity”.

“QVQLVESGGGLVQAGGSLRLSCAASGSIFYANAMGWYRQAPGKERELVAAIDGGSTYYADSVKGRFTISRDNAKNTVYLQMNSLKPEDTAVYYCAADYFNYRGYTYLGDYWGQGTQVTVSS”: the “polyreactivity (PSR sort gate)” value is reported as “low polyreactivity”. With “QVQLVESGGGLVQAGGSLRLSCAASGSIFYAYAMGWYRQAPGKERELVATISSVGSTYYADSVKGRFTISRDNAKNTVYLQMNSLKPEDTAVYYCAKQRIVVYKTGYDYWGQGTQVTVSS”, the “polyreactivity (PSR sort gate)” value is reported as “low polyreactivity”.

With “QVQLVESGGGLVQAGGSLRLSCAASGSIFYAYAMGWYTQAPGKERELVATISSVGSTYYADSVKGRFTISRDNAKNTVYLQMNSLKPEDTAVYYCAKQRIVVYKTGYDYWGQGTQVTVSS”, the “polyreactivity (PSR sort gate)” value was “low polyreactivity”. With “QVQLVESGGGLVQAGGSLRLSCAASGSIFYAYAMRWYRQAPGKERELVAVINSGGSTYYADSVKGRFTISRDNAKNTVYLQMHSLKPEDTAVYYCNATQDRGKYDYPPRGRGYYYWGQGTQVTVSS”, the “polyreactivity (PSR sort gate)” value is reported as “high polyreactivity”.

For “QVQLVESGGGLVQAGGSLRLSCAASGSIFYDAMGWYRQAPGKERELVAAITSSGGDTSYADSVKGRCTISRDNAKNTVYLQMNSLKPEDTAGYYCNADTYYVEYTAFDYWGQGTQVTVSS”, the “polyreactivity (PSR sort gate)” value is “low polyreactivity”. On to “QVQLVESGGGLVQAGGSLRLSCAASGSIFYDNAMGWYRPAPGKERELVATIRGGGNTYYADSVKGRFTISRDNAKNTVYLQMNSLKPEDTAVYYCSKQSDFPGVPLVYGVYGYDYWGQGTQVTVSS”, for which the “polyreactivity (PSR sort gate)” value is on record as “low polyreactivity”. Consider “QVQLVESGGGLVQAGGSLRLSCAASGSIFYDNAMGWYRQAPGKERELVAAIRGRGGSTYYADSVKGRFTISRDNAKNTVYLQMNSLKPVDTAVYYCAAERPIAVVRYYTYYYWGQGTQVTVSS”, for which the “polyreactivity (PSR sort gate)” value is “high polyreactivity”.
